Here are results for one protein from patent US20210347833A1 (WISYS TECHNOLOGY FOUNDATION, published 2021).

The series concerns the molecule itself. Description: size-exclusion chromatography, titration of apoSFP with biliverdin; self-association of subunits (apo protein is monomeric, no dimer fraction seen). A general note: Size exclusion chromatography separates by hydrodynamic size, large species first.

B1: Recombinant wild-type Sandercyanin fluorescent protein (SFP) lacking the signal peptide (other)
chain: MFIKPGRCPKPAVQEDFDAARYLGVWYDIQRLPNKFQKGECATATYSLSPGVGFSVFNRERLANGTIKSVIGSAIAEDPCEPAKLQFFHENAAPVPYWVLSTDYDNYALVYSCINLGASHAAYASIVSRQPTLPEETIKKLQGTMSSFGVGVDTLLTTNQDAAYCSAMNQ
notes: the apo protein is a monomer in solution; also called wtSFP; wild-type SFP
Consider B1, for which the binding result is given as “binds”.
